Measurements: article PMC5686067, “Structural basis of adaptor-mediated protein degradation by the tail-specific PDZ-protease Prc” (Nature Communications, 2017)
Numbering of substitutions follows the chain as printed. Names may count otherwise.

B1: sNlpI (soluble NlpI without its lipoprotein signal peptide) (natural protein, E. coli, UniProt P0AFB1 20-294, looked up)
chain: SNTSWRKSEVLAVPLQPTLQQEVILARMEQILASRALTDDERAQLLYERGVLYDSLGLRALARNDFSQALAIRPDMPEVFNYLGIYLTQAGNFDAAYEAFDSVLELDPTYNYAHLNRGIALYYGGRDKLAQDDLLAFYQDDPNDPFRSLWLYLAEQKLDEKQAKEVLKQHFEKSDKEQWGWNIVEFYLGNISEQTLMERLKADATDNTSLAEHLSETNFYLGKYYLSLGDLDSATALFKLAVANNVHNFVEHRYALLELSLLGQDQDDLAESDQQ
notes: NlpI, E. coli outer-membrane lipoprotein with four tetratricopeptide repeats, residues S20-Q294, without the lipoprotein signal peptide; Homodimer by AUC and in the crystal. pET28a vector with N-terminal His-tag; no removal of the tag is described; also called WT-NlpI; wild-type sNlpI; source: E. coli BL21(DE3), purified (Ni-NTA, MonoQ, Superdex 200); cleared cell lysate in the pull-down; not …
B2: sNlpI-L38C (natural protein, E. coli, UniProt P0AFB1 20-294, looked up)
chain: B1 chain with L19C
notes: NlpI, E. coli, residues S20-Q294 without the signal peptide, L38C in helix h1; source: E. coli BL21(DE3), purified (Ni-NTA, MonoQ, Superdex 200)
B3: sNlpI-L38A (natural protein, E. coli, UniProt P0AFB1 20-294, looked up)
chain: B1 chain with L19A
notes: NlpI, E. coli, residues S20-Q294 without the signal peptide, L38A in helix h1; source: E. coli BL21(DE3), purified (Ni-NTA, MonoQ, Superdex 200)
B4: sNlpI-R82E (natural protein, E. coli, UniProt P0AFB1 20-294, looked up)
chain: B1 chain with R63E
notes: NlpI, E. coli, residues S20-Q294 without the signal peptide, R82E in helix TPR1b; source: E. coli BL21(DE3), purified (Ni-NTA, MonoQ, Superdex 200)

Target: the molecule itself
Assay: AUC; sedimentation velocity, absorbance optics, 20 mM Tris-HCl pH 8.0, 100 mM NaCl, 2 mM DTT, 20 °C, c(s) model in Sedfit

Row | Protein | stoichiometry N
1 | B1 | 2
2 | B2 | 2
3 | B3 | 2
4 | B4 | 2
